Experimental data taken from US20120308566A1.

Tests used:
[1] = target: huIL-17RA-FLAG-polyHis (human) (UniProt Q96F46); test: multiplexed binning, huIgG row/col I (IL-17RA on AMH22/AML22 bead)
[2] = target: huIL-17RA-FLAG-polyHis (human) (UniProt Q96F46); test: multiplexed binning, huIgG row/col K (IL-17RA on AMH14/AML14 bead)
[3] = target: huIL-17RA-FLAG-polyHis (human) (UniProt Q96F46); test: multiplexed binning, huIgG row/col L (IL-17RA on AMH19/AML19 bead)

For huIgG (antibody), the normalized MFI [1] was -72, the normalized MFI [2] was -235 and the normalized MFI [3] was -36.
